As usually defined, the Kd is the constant that tells how readily two partners part at equilibrium. Low readings indicate tighter binding, high ones weaker binding.

The target in test [1] is TBC1D23 C-terminal domain (mouse, UniProt Q8K0F1 559-684). Nature of the test: ITC. For orientation: ITC needs no label: the signal is the heat of the interaction.
The target of test [2] is TBC1D23 C-terminal domain K672A (mouse, UniProt Q8K0F1 559-677, K672A). In words: ITC.
TBC1D23 C-terminal domain K672A, sequence (Q8K0F1 559-677 K672A): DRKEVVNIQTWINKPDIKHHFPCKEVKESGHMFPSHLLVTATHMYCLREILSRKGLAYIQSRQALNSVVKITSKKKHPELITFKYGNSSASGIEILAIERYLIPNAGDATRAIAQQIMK

TBC1D23 C-terminal domain, sequence (Q8K0F1 559-684): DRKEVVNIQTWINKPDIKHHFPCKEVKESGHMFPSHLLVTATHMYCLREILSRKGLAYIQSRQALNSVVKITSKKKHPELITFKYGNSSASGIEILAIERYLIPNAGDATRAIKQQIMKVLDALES

DDNTLYHAGFTED [STX16 R216A] gave a Kd in test [1] of 10.3 µM.
The molecule DDNTLYHRGFTED [syntaxin-16 (209–221) peptide] displayed a Kd in test [2] of 27.5 µM.
Molecule AANTLYHRGFTED [STX16 DD209-210AA] had a Kd in test [1] of over 200 µM.

These data come from paper PMC11093223 (2024).
